Like-named read-outs stand apart in the source and are kept apart here.
What was measured:
Test in all cases: cell-based or functional assay
[1] = molecular target: T1, CD19 on CD19 +ve cell lines (Daudi, Ramos, WSU-DLCL2) (human, UniProt P15391 20-556)
T1 sequence (looked up): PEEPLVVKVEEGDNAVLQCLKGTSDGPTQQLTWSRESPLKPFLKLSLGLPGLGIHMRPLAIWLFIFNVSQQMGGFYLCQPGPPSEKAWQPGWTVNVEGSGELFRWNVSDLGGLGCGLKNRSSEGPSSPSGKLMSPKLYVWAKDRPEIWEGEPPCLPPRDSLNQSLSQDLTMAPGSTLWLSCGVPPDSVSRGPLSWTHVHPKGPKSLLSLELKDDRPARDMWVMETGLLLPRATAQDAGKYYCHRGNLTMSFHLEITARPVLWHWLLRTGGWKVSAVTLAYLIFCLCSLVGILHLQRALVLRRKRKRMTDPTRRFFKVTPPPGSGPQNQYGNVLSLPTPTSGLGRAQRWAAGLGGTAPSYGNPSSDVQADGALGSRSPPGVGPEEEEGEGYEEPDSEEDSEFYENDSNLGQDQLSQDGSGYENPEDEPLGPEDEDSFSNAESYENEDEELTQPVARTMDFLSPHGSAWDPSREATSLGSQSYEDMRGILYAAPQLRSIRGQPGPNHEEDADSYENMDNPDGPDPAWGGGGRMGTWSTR

[2] = molecular target: T1, CD19 on CD19 +ve cell lines (Daudi, …); remark: listed apart in the source
[3] = molecular target: T1, CD19 on CD19 +ve cell lines (Daudi, …); remark: listed apart in the source

B1: RB4v1.2-A (anti-CD19 antibody RB4v1.2 conjugated to PBD drug linker A) (antibody, DAR 2.2, V domains shown)
VH: QVQLVQPGAEVVKPGASVKLSCKTSGYTFTSNWMHWVKQAPGQGLEWIGEIDPSDSYTNYNQNFQGKAKLTVDKSTSTAYMEVSSLRSDDTAVYYCARGSNPYYYAMDYWGQGTSVTVS
VL: EIVLTQSPAIMSASPGERVTMTCSASSGVNYMHWYQQKPGTSPRRWIYDTSKLASGVPARFSGSGSGTSYSLTISSMEPEDAATYYCHQRGSYTFGGGTKLEIK
modifications: PBD dimer drug linker A attached to cysteine thiols after TCEP reduction; positions not given; DAR 2.2 for the whole ADC
[1]
  EC50 (µg/mL), in vitro cytotoxicity, Alamar Blue cell survival, Daudi cells: 0.00112 µg/mL
  EC50 (µg/mL), in vitro cytotoxicity, Alamar Blue cell survival, Ramos cells: 0.00102 µg/mL
  EC50 (µg/mL), in vitro cytotoxicity, Alamar Blue cell survival, WSU-DLCL2 cells: 0.117 µg/mL

B2: RB4v1.2-E (anti-CD19 antibody RB4v1.2 conjugated to PBD drug linker E) (antibody, DAR 1.93, V domains shown)
VH: QVQLVQPGAEVVKPGASVKLSCKTSGYTFTSNWMHWVKQAPGQGLEWIGEIDPSDSYTNYNQNFQGKAKLTVDKSTSTAYMEVSSLRSDDTAVYYCARGSNPYYYAMDYWGQGTSVTVS
VL: EIVLTQSPAIMSASPGERVTMTCSASSGVNYMHWYQQKPGTSPRRWIYDTSKLASGVPARFSGSGSGTSYSLTISSMEPEDAATYYCHQRGSYTFGGGTKLEIK
modifications: PBD dimer drug linker E attached to cysteine thiols after TCEP reduction; positions not given; DAR 1.93 for the whole ADC
[2]
  EC50 (µg/mL), in vitro cytotoxicity, Alamar Blue cell survival, Daudi cells: 0.00122 µg/mL
  EC50 (µg/mL), in vitro cytotoxicity, Alamar Blue cell survival, Ramos cells: 0.00147 µg/mL
  EC50 (µg/mL), in vitro cytotoxicity, Alamar Blue cell survival, WSU-DLCL2 cells: 0.031 µg/mL

B3: RB4v1.2-D (anti-CD19 antibody RB4v1.2 conjugated to PBD drug linker D) (antibody, DAR 2.18, V domains shown)
VH: QVQLVQPGAEVVKPGASVKLSCKTSGYTFTSNWMHWVKQAPGQGLEWIGEIDPSDSYTNYNQNFQGKAKLTVDKSTSTAYMEVSSLRSDDTAVYYCARGSNPYYYAMDYWGQGTSVTVS
VL: EIVLTQSPAIMSASPGERVTMTCSASSGVNYMHWYQQKPGTSPRRWIYDTSKLASGVPARFSGSGSGTSYSLTISSMEPEDAATYYCHQRGSYTFGGGTKLEIK
modifications: PBD dimer drug linker D (iodoacetamide) attached to cysteine thiols after TCEP reduction; positions not given; DAR 2.18 for the whole ADC
[3]
  EC50 (µg/mL), in vitro cytotoxicity, Alamar Blue cell survival, Daudi cells: 0.00102 µg/mL
  EC50 (µg/mL), in vitro cytotoxicity, Alamar Blue cell survival, Ramos cells: 0.000798 µg/mL
  EC50 (µg/mL), in vitro cytotoxicity, Alamar Blue cell survival, WSU-DLCL2 cells: 0.0219 µg/mL

— patent US20150283262A1 (AstraZeneca / MedImmune, published 2015)
